Source: patent US20250145711A1 (Janssen / Centocor, published 2025)

B1: BC3B51 (bispecific antibody, human IgG1, kappa, L234A L235A)
chain: QVQLVQSGAEVKKPGSSVKVSCKASGYTFTRSTMHWVKQAPGQGLEWIGYINPSSAYTNYNQKFQGRVTLTADKSTSTAYMELSSLRSEDTAVYYCASPQVHYDYQGFPYWGQGTLVTVSSGGSEGKSSGSGSESKSTGGSEIVLTQSPATLSASPGERVTLSCSASSSVSYMNWYQQKPGQAPRRWIYDSSKLASGVPARFSGSGSGRDYTLTISSLEPEDFAVYYCQQWSRNPPTFGGGTKVEIKEPKSSDKTHTCPPCPAPEAAGGPSVFLFPPKPKDTLMISRTPEVTCVVVSVSHEDPEVKFNWYVDGVEVHNAKTKPREEQYNSTYRVVSVLTVLHQDWLNGKEYKCKVSNKALPAPIEKTISKAKGQPREPQVYVYPPSREEMTKNQVSLTCLVKGFYPSDIAVEWESNGQPENNYKTTPPVLDSDGSFALVSKLTVDKSRWQQGNVFSCSVMHEALHNHYTQKSLSLSPG
heavy: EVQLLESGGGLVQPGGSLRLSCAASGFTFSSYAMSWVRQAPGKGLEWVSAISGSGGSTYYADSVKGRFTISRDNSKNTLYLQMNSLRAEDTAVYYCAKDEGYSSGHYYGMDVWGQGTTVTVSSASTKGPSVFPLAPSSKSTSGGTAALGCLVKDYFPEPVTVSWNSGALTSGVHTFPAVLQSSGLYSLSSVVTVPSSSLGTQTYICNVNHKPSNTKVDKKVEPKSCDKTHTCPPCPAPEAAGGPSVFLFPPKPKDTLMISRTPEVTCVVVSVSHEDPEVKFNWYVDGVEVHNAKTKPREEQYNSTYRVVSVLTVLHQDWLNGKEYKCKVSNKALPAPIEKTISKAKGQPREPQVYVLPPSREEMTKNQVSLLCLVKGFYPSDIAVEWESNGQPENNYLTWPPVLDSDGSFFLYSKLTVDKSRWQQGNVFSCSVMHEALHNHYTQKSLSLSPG
light: EIVLTQSPGTLSLSPGERATLSCRASQSISSSFLTWYQQKPGQAPRLLIYGASSRATGIPDRFSGGGSGTDFTLTISRLEPEDFAVYYCQHYGSSPMYTFGQGTKLEIKRTVAAPSVFIFPPSDEQLKSGTASVVCLLNNFYPREAKVQWKVDNALQSGNSQESVTEQDSKDSTYSLSSTLTLSKADYEKHKVYACEVTHQGLSSPVTKSFNRGEC
notes: IgG1 BCMAxCD3; HC1: CD3B2030-N106Q HL scFv-Fc; also called BC3B51.001; B2030 HL NtoQ
B2: BC3B103 (bispecific antibody, human IgG1, kappa, L234A L235A)
chain: QVQLVQSGAEVKKPGSSVKVSCKASGYTFTRSTMHWVKQAPGQGLEWIGYINPSSAYTNYNQKFQGRVTLTADKSTSTAYMELSSLRSEDTAVYYCASPQVHYDYAGFPYWGQGTLVTVSSGGSEGKSSGSGSESKSTGGSEIVLTQSPATLSASPGERVTLSCSASSSVSYMNWYQQKPGQAPRRWIYDSSKLASGVPARFSGSGSGRDYTLTISSLEPEDFAVYYCQQWSRNPPTFGGGTKVEIKEPKSSDKTHTCPPCPAPEAAGGPSVFLFPPKPKDTLMISRTPEVTCVVVSVSHEDPEVKFNWYVDGVEVHNAKTKPREEQYNSTYRVVSVLTVLHQDWLNGKEYKCKVSNKALPAPIEKTISKAKGQPREPQVYVYPPSREEMTKNQVSLTCLVKGFYPSDIAVEWESNGQPENNYKTTPPVLDSDGSFALVSKLTVDKSRWQQGNVFSCSVMHEALHNHYTQKSLSLSPG
heavy: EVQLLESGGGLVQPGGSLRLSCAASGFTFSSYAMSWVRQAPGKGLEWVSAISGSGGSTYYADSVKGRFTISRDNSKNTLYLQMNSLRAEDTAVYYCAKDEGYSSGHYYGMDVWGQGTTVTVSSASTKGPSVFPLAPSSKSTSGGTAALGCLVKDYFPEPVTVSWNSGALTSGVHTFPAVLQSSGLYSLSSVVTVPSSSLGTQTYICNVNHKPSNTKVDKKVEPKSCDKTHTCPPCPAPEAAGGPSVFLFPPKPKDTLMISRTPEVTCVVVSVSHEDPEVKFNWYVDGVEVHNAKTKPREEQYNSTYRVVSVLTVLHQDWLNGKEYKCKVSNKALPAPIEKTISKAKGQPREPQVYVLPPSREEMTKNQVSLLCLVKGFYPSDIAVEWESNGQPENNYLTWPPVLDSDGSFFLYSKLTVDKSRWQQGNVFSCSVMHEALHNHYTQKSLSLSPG
light: EIVLTQSPGTLSLSPGERATLSCRASQSISSSFLTWYQQKPGQAPRLLIYGASSRATGIPDRFSGGGSGTDFTLTISRLEPEDFAVYYCQHYGSSPMYTFGQGTKLEIKRTVAAPSVFIFPPSDEQLKSGTASVVCLLNNFYPREAKVQWKVDNALQSGNSQESVTEQDSKDSTYSLSSTLTLSKADYEKHKVYACEVTHQGLSSPVTKSFNRGEC
notes: IgG1 BCMAxCD3; HC1: CD3B2030-N106A HL scFv-Fc; also called BC3B103.001; B2030 HL NtoA
B3: BC3B108 (bispecific antibody, human IgG1, kappa, L234A L235A)
chain: QVQLVQSGAEVKKPGSSVKVSCKASGYTFTRSTMHWVKQAPGQGLEWMGYINPSSAYTNYNQKFQGRVTLTADKSTSTAYMELSSLRSEDTAVYYCASPQVHYDYGGFPYWGQGTLVTVSSGGSEGKSSGSGSESKSTGGSEIVLTQSPATLSASPGERVTLSCSASSSVSYMNWYQQKPGQAPRRLIYDSSKLASGVPARFSGSGSGRDYTLTISSLEPEDFAVYYCQQWSRNPPTFGGGTKVEIKEPKSSDKTHTCPPCPAPEAAGGPSVFLFPPKPKDTLMISRTPEVTCVVVSVSHEDPEVKFNWYVDGVEVHNAKTKPREEQYNSTYRVVSVLTVLHQDWLNGKEYKCKVSNKALPAPIEKTISKAKGQPREPQVYVYPPSREEMTKNQVSLTCLVKGFYPSDIAVEWESNGQPENNYKTTPPVLDSDGSFALVSKLTVDKSRWQQGNVFSCSVMHEALHNHYTQKSLSLSPG
heavy: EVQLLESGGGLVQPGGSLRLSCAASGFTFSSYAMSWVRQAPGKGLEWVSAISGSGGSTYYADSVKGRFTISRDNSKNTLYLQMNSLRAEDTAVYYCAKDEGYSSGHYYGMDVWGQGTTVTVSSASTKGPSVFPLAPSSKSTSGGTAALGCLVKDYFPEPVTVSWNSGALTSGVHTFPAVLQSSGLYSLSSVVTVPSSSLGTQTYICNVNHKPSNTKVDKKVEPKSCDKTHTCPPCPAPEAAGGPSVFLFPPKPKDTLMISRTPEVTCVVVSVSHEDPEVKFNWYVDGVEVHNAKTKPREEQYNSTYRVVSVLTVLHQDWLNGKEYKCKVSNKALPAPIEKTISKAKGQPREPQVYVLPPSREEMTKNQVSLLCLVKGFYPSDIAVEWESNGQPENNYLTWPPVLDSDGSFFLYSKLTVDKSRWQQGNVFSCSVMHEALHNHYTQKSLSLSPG
light: EIVLTQSPGTLSLSPGERATLSCRASQSISSSFLTWYQQKPGQAPRLLIYGASSRATGIPDRFSGGGSGTDFTLTISRLEPEDFAVYYCQHYGSSPMYTFGQGTKLEIKRTVAAPSVFIFPPSDEQLKSGTASVVCLLNNFYPREAKVQWKVDNALQSGNSQESVTEQDSKDSTYSLSSTLTLSKADYEKHKVYACEVTHQGLSSPVTKSFNRGEC
notes: IgG1 BCMAxCD3; HC1: CD3B2051-N106G HL scFv-Fc; also called BC3B108.001; B2051 HL NtoG
B4: BC3B105 (bispecific antibody, human IgG1, kappa, L234A L235A)
chain: QVQLVQSGAEVKKPGSSVKVSCKASGYTFTRSTMHWVKQAPGQGLEWIGYINPSSAYTNYNQKFQGRVTLTADKSTSTAYMELSSLRSEDTAVYYCASPQVHYDYSGFPYWGQGTLVTVSSGGSEGKSSGSGSESKSTGGSEIVLTQSPATLSASPGERVTLSCSASSSVSYMNWYQQKPGQAPRRWIYDSSKLASGVPARFSGSGSGRDYTLTISSLEPEDFAVYYCQQWSRNPPTFGGGTKVEIKEPKSSDKTHTCPPCPAPEAAGGPSVFLFPPKPKDTLMISRTPEVTCVVVSVSHEDPEVKFNWYVDGVEVHNAKTKPREEQYNSTYRVVSVLTVLHQDWLNGKEYKCKVSNKALPAPIEKTISKAKGQPREPQVYVYPPSREEMTKNQVSLTCLVKGFYPSDIAVEWESNGQPENNYKTTPPVLDSDGSFALVSKLTVDKSRWQQGNVFSCSVMHEALHNHYTQKSLSLSPG
heavy: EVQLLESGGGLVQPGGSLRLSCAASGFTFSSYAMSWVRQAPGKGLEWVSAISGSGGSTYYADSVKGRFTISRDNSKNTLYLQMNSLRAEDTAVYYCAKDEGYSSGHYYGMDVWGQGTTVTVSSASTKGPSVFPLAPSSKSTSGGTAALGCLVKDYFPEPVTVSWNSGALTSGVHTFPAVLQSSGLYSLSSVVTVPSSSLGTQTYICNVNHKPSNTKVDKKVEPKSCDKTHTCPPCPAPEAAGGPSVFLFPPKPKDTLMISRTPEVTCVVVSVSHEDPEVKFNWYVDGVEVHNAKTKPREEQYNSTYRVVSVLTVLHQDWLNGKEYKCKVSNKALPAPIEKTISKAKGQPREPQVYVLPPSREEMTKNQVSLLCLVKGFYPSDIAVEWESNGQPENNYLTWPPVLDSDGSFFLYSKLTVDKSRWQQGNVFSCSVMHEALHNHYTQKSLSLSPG
light: EIVLTQSPGTLSLSPGERATLSCRASQSISSSFLTWYQQKPGQAPRLLIYGASSRATGIPDRFSGGGSGTDFTLTISRLEPEDFAVYYCQHYGSSPMYTFGQGTKLEIKRTVAAPSVFIFPPSDEQLKSGTASVVCLLNNFYPREAKVQWKVDNALQSGNSQESVTEQDSKDSTYSLSSTLTLSKADYEKHKVYACEVTHQGLSSPVTKSFNRGEC
notes: IgG1 BCMAxCD3; HC1: CD3B2030-N106S HL scFv-Fc; also called BC3B105.001; B2030 HL NtoS
B5: BC3B107 (bispecific antibody, human IgG1, kappa, L234A L235A)
chain: QVQLVQSGAEVKKPGSSVKVSCKASGYTFTRSTMHWVKQAPGQGLEWMGYINPSSAYTNYNQKFQGRVTLTADKSTSTAYMELSSLRSEDTAVYYCASPQVHYDYAGFPYWGQGTLVTVSSGGSEGKSSGSGSESKSTGGSEIVLTQSPATLSASPGERVTLSCSASSSVSYMNWYQQKPGQAPRRLIYDSSKLASGVPARFSGSGSGRDYTLTISSLEPEDFAVYYCQQWSRNPPTFGGGTKVEIKEPKSSDKTHTCPPCPAPEAAGGPSVFLFPPKPKDTLMISRTPEVTCVVVSVSHEDPEVKFNWYVDGVEVHNAKTKPREEQYNSTYRVVSVLTVLHQDWLNGKEYKCKVSNKALPAPIEKTISKAKGQPREPQVYVYPPSREEMTKNQVSLTCLVKGFYPSDIAVEWESNGQPENNYKTTPPVLDSDGSFALVSKLTVDKSRWQQGNVFSCSVMHEALHNHYTQKSLSLSPG
heavy: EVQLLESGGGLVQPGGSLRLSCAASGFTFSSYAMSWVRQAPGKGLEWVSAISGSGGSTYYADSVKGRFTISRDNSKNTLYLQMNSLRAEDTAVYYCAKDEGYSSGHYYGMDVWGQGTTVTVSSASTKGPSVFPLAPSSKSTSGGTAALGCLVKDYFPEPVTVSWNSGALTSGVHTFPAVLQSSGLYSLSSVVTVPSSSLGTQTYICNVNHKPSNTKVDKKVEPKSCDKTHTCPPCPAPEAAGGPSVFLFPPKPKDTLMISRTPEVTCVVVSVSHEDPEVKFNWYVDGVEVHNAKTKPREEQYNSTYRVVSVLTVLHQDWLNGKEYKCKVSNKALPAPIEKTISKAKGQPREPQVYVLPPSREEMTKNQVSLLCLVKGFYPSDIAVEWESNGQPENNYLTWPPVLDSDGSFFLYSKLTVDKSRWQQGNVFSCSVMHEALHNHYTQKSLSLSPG
light: EIVLTQSPGTLSLSPGERATLSCRASQSISSSFLTWYQQKPGQAPRLLIYGASSRATGIPDRFSGGGSGTDFTLTISRLEPEDFAVYYCQHYGSSPMYTFGQGTKLEIKRTVAAPSVFIFPPSDEQLKSGTASVVCLLNNFYPREAKVQWKVDNALQSGNSQESVTEQDSKDSTYSLSSTLTLSKADYEKHKVYACEVTHQGLSSPVTKSFNRGEC
notes: IgG1 BCMAxCD3; HC1: CD3B2051-N106A HL scFv-Fc; also called BC3B107.001; B2051 HL NtoA
B6: BC3B104 (bispecific antibody, human IgG1, kappa, L234A L235A)
chain: QVQLVQSGAEVKKPGSSVKVSCKASGYTFTRSTMHWVKQAPGQGLEWIGYINPSSAYTNYNQKFQGRVTLTADKSTSTAYMELSSLRSEDTAVYYCASPQVHYDYGGFPYWGQGTLVTVSSGGSEGKSSGSGSESKSTGGSEIVLTQSPATLSASPGERVTLSCSASSSVSYMNWYQQKPGQAPRRWIYDSSKLASGVPARFSGSGSGRDYTLTISSLEPEDFAVYYCQQWSRNPPTFGGGTKVEIKEPKSSDKTHTCPPCPAPEAAGGPSVFLFPPKPKDTLMISRTPEVTCVVVSVSHEDPEVKFNWYVDGVEVHNAKTKPREEQYNSTYRVVSVLTVLHQDWLNGKEYKCKVSNKALPAPIEKTISKAKGQPREPQVYVYPPSREEMTKNQVSLTCLVKGFYPSDIAVEWESNGQPENNYKTTPPVLDSDGSFALVSKLTVDKSRWQQGNVFSCSVMHEALHNHYTQKSLSLSPG
heavy: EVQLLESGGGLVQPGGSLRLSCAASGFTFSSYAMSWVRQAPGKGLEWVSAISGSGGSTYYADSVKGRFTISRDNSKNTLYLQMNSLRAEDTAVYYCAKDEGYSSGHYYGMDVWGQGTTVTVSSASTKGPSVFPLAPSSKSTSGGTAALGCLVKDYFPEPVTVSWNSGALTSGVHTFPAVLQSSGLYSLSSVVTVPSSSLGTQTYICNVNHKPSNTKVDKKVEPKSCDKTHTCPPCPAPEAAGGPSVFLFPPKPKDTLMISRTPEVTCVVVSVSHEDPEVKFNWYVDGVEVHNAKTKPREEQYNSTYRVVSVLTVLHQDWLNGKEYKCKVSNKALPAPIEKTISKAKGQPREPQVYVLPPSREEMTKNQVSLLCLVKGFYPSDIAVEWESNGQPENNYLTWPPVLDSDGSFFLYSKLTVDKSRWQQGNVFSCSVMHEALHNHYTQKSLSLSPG
light: EIVLTQSPGTLSLSPGERATLSCRASQSISSSFLTWYQQKPGQAPRLLIYGASSRATGIPDRFSGGGSGTDFTLTISRLEPEDFAVYYCQHYGSSPMYTFGQGTKLEIKRTVAAPSVFIFPPSDEQLKSGTASVVCLLNNFYPREAKVQWKVDNALQSGNSQESVTEQDSKDSTYSLSSTLTLSKADYEKHKVYACEVTHQGLSSPVTKSFNRGEC
notes: IgG1 BCMAxCD3; HC1: CD3B2030-N106G HL scFv-Fc; also called BC3B104.001; B2030 HL NtoG
B7: BC3B109 (bispecific antibody, human IgG1, kappa, L234A L235A)
chain: QVQLVQSGAEVKKPGSSVKVSCKASGYTFTRSTMHWVKQAPGQGLEWMGYINPSSAYTNYNQKFQGRVTLTADKSTSTAYMELSSLRSEDTAVYYCASPQVHYDYQGFPYWGQGTLVTVSSGGSEGKSSGSGSESKSTGGSEIVLTQSPATLSASPGERVTLSCSASSSVSYMNWYQQKPGQAPRRLIYDSSKLASGVPARFSGSGSGRDYTLTISSLEPEDFAVYYCQQWSRNPPTFGGGTKVEIKEPKSSDKTHTCPPCPAPEAAGGPSVFLFPPKPKDTLMISRTPEVTCVVVSVSHEDPEVKFNWYVDGVEVHNAKTKPREEQYNSTYRVVSVLTVLHQDWLNGKEYKCKVSNKALPAPIEKTISKAKGQPREPQVYVYPPSREEMTKNQVSLTCLVKGFYPSDIAVEWESNGQPENNYKTTPPVLDSDGSFALVSKLTVDKSRWQQGNVFSCSVMHEALHNHYTQKSLSLSPG
heavy: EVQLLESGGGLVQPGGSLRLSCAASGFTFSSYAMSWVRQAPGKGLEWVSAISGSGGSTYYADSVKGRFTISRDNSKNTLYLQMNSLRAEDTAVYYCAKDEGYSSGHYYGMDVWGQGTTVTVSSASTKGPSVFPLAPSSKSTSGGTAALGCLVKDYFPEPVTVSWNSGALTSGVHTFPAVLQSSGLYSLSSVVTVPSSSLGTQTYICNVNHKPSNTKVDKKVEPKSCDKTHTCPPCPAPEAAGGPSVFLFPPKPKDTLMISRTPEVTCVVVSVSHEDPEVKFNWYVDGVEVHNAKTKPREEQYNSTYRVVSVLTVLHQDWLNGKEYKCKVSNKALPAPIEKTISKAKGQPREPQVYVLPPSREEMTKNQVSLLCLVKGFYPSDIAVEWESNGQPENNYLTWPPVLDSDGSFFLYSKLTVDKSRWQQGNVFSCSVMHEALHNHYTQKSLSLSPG
light: EIVLTQSPGTLSLSPGERATLSCRASQSISSSFLTWYQQKPGQAPRLLIYGASSRATGIPDRFSGGGSGTDFTLTISRLEPEDFAVYYCQHYGSSPMYTFGQGTKLEIKRTVAAPSVFIFPPSDEQLKSGTASVVCLLNNFYPREAKVQWKVDNALQSGNSQESVTEQDSKDSTYSLSSTLTLSKADYEKHKVYACEVTHQGLSSPVTKSFNRGEC
notes: IgG1 BCMAxCD3; HC1: CD3B2051-N106Q HL scFv-Fc; also called BC3B109.001; B2051 HL NtoQ

Tests used:
[1] = target: T1, Human CD3 epsilon (CD3ε), on primary human pan T cells (human, UniProt P07766 23-207); assay: flow cytometry on human T cells, anti-human IgG Fc A647 detection
T1 construct: Endogenous CD3 in the TCR complex on T cells; also called T-cell surface glycoprotein CD3 epsilon chain; T3E
T1 sequence (P07766 23-207 limits assumed): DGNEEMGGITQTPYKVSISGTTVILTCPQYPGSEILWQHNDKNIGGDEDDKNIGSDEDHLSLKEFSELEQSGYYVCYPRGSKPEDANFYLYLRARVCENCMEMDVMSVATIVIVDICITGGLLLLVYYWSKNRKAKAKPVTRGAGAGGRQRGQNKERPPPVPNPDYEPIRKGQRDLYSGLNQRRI
How it was run: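 Cryopreserved primary human pan T cells (50,000/well) incubated 1 hr at 37 °C with serially diluted bispecific antibodies; bound antibody detected with A647 anti-human IgG Fc (2 ug/mL, 30 min on ice). Read by iQue flow cytometry, gated on singlets and SYTOX green-negative live cells; secondary-alone wells as background.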

[2] = target: T1, Human CD3 epsilon (CD3ε), on primary …; assay: cell-based or functional assay
[3] = target: T1, Human CD3 epsilon (CD3ε), on primary …; assay: cell-based or functional assay; remark: listed apart in the source

| Binder | EC50 [1] | H929 Killing EC50 [2] | EC50, Cytotoxicity [3] |
| --- | --- | --- | --- |
| B1 | 1.9 nM | 0.0129 nM | 0.0278 nM |
| B2 | 4.6 nM | 0.0921 nM | 0.0921 nM |
| B3 | 11 nM | 0.0853 nM | 0.0853 nM |
| B4 | 20.7 nM | 0.172 nM | 0.172 nM |
| B5 | 8.6 nM | 0.0415 nM | 0.0415 nM |
| B6 | 64.2 nM | 0.237 nM | 0.237 nM |
| B7 | 13.8 nM | 0.0426 nM | 0.0426 nM |
